According to PMC7438487, “Structural studies reveal flexible roof of active site responsible for ω-transaminase CrmG overcoming by-product inhibition” (Communications Biology, 2020):

What was measured:
[1] = substrate: C[C@H](N)C(=O)O; test: purified protein; conditions: 0.2 mM CRM M, 80 μM PLP, 4 μM CrmG, 200 mM Tris pH 7.5, 30 °C, covalent PLP-Ala external aldimine in crystal
[2] = substrate: NC(=O)CC[C@H](N)C(=O)O; test: transamination kinetics with CRM M as acceptor; crystal structure; format: biochemical, Actinoalloteichus sp. WH1-2216-6; conditions: 0.2 mM CRM M, 80 μM PLP, 4 μM CrmG, 200 mM Tris pH 7.5, 30 °C, no external aldimine in crystal
[3] = substrate: N[C@@H](CCC(=O)O)C(=O)O; test: transamination kinetics with CRM M as acceptor; crystal structure of external aldimine; format: biochemical, Actinoalloteichus sp. WH1-2216-6; conditions: 0.2 mM CRM M, 80 μM PLP, 4 μM CrmG, 200 mM Tris pH 7.5, 30 °C, covalent PLP-Glu external aldimine in crystal

B1: CrmG (Actinoalloteichus sp. WH1-2216-6) (protein)
chain: MTHPSGEPVYADAVLNGWLTSMGLGVEYVRAEGNTVYYLDDEGREVPVLDHACGFGSLIFGHNHPEIIAHAKAALDAGTVVHAQLSRQPRANQISRILNDIMRRETGRDDRYNAIFANSGAEANEICMKHAELERQERITALFAEIDAELDTAREALTTGTATLDTASLPLVGGGAGDVDGVIADIHRHNDERRAERPLFLTLDGSFHGKLVGSIQLTQNEPWRTPFTALSSPARFLPADEPELIGKIVEDERRSVLTLSLDKDTVRVVERDFPVVAAIFVEPVRGGSGMKTVTPELAEELHRLRDTLGCPLVVDEVQTGIGRTGAFFGSALLGIRGDYYTLAKAIGGGIVKNSVALIRQDRFLPAMEVIHSSTFAKDGLSASIALKVLEMVEADGGRVYQRVRERGQRLEAMLESVRADHSDVVSAVWGTGLMLALELRDQSNATSQAIREKAAHGFLGYVLAGFLLREHHIRVLPAGPRSGFLRFSPSLYITDEEIDRTETALRSLFTALRDQDGDRLVLS
notes: pET28a, N-terminal His-tag and 14 additional vector residues; expressed in E. coli BL21; dimer (114 kDa by DLS)
- Km [1]: 405.10 µM
- Km [2]: 182.70 µM
- Km [3]: 80.02 µM
